The supplement of paper PMC10567573

B1: PDZK1 (parent)
chain: RETASLKLLPHQPRIVEMKKGSNG
B2: ZBED3 (parent)
chain: QARLRDVSRREGALGWAPAAPPPL
B3: SMG5 (parent)
chain: TRKLSPGKKRCKDIKRLLVNFMYL

Variants of: B1
Assay: protein stability index of a GFP-peptide fusion (GPS, HEK-293T) (PSI 1-6); higher = more stable
Details: c terminus: a fixed tail appended
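Also: lentivirally expressed fusions sorted by FACS into six bins by GFP to DsRed ratio, PSI derived from sequencing read proportions per bin multiplied by bin number.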

| Variant | protein stability index |
| --- | --- |
| K19T | 2.61 |
| K19G | 4.83 |
| K19H | 2.65 |
| K19A | 3.55 |
| K19Y | 2.2 |
| K19D | 4.35 |
| K19W | 3.14 |
| K19P | 4.52 |
| K19V | 2.39 |
| G21N | 3.43 |
| G21W | 2.6 |
| G21L | 1.83 |
| G21K | 3.74 |
| G21Y | 2.13 |
| G21P | 3.77 |
| G21Q | 2.92 |
| G21E | 4.29 |
| G21D | 4.48 |
| G21S | 3.37 |
| G21F | 2.64 |
| G21C | 2.58 |

| Variant | protein stability index |
| --- | --- |
| G21I | 3.23 |
| G21A | 2.67 |
| G21T | 2.25 |
| G21V | 3.56 |
| G21M | 2.22 |
| G21R | 3.9 |
| V16D | 4.18 |
| V16W | 3.57 |
| V16Y | 3.68 |
| V16I | 3.9 |
| V16T | 4.67 |
| V16G | 4.85 |
| V16E | 4.53 |
| V16M | 4.17 |
| V16A | 4.42 |
| V16N | 4.88 |
| V16F | 4.05 |
| V16P | 4.63 |
| V16Q | 4.51 |
| V16L | 3.87 |
| V16S | 3.92 |

| Variant | protein stability index |
| --- | --- |
| V16H | 4.35 |
| G24H | 4.17 |
| G24C | 4.01 |
| G24Y | 3.56 |
| G24P | 4.01 |
| G24K | 4.76 |
| G24S | 3.99 |
| G24L | 3.53 |
| G24M | 4.17 |
| G24A | 4.52 |
| G24R | 4.03 |
| G24T | 4.41 |
| G24V | 4.15 |
| G24E | 4.82 |
| G24W | 3.88 |
| G24D | 5 |
| G24N | 4.49 |
| G24F | 3.05 |
| G24Q | 4.58 |

Variants of: B2
Assay: as above
Details: c terminus: a fixed tail appended

| Variant | protein stability index |
| --- | --- |
| A20W | 1.96 |
| P18E | 3.56 |
| P22S | 3.2 |
| P22G | 3.34 |
| P22D | 3.81 |
| P22V | 2.46 |
| P22K | 3.62 |
| P22I | 2.74 |
| P22H | 3.45 |
| P22T | 3.11 |
| P22M | 3.16 |
| P22R | 3.31 |
| P22Y | 2.37 |
| P22Q | 3.29 |
| P22A | 3.65 |
| P22F | 2.89 |
| P22N | 3.26 |
| P22W | 2.62 |
| P22C | 2.29 |
| P22E | 4.2 |
| P22L | 3.46 |
| P21S | 3.5 |
| P21L | 2.67 |
| P21E | 3.87 |
| P21F | 2.48 |
| P21D | 3.96 |
| P21A | 3.1 |
| P21Q | 3.22 |

| Variant | protein stability index |
| --- | --- |
| P21K | 3.55 |
| P21G | 3.02 |
| P21M | 3.2 |
| P21Y | 2.02 |
| P21R | 3.49 |
| P21N | 2.84 |
| P21V | 3.27 |
| P21I | 2.84 |
| P21C | 2.31 |
| P21W | 2.12 |
| P23Q | 3.5 |
| P23W | 2.08 |
| P23V | 2.79 |
| P23F | 2.79 |
| P23M | 2.86 |
| P23K | 3.33 |
| P23D | 3.81 |
| P23N | 3.18 |
| P23Y | 2.06 |
| P23G | 3.73 |
| P23S | 3.63 |
| P23L | 2.9 |
| P23R | 3.33 |
| P23A | 3.38 |
| P23I | 2.36 |
| P23E | 3.12 |
| P23C | 3.19 |

Variants of: B3
Assay: as above
Details: c terminus: a fixed tail appended

| Variant | protein stability index |
| --- | --- |
| L4A | 1.76 |
| L4K | 2.07 |
| L4N | 1.22 |
| L4P | 2.58 |
| L4I | 3.12 |
| L4D | 1.33 |
| L4C | 2.54 |
| L4R | 1.15 |
| L4G | 1.36 |
| L4Q | 2.06 |
| L4H | 2.64 |
| T1R | 4.28 |
| T1E | 2.17 |
| T1C | 2.22 |
| T1Q | 2.7 |
| T1S | 3.96 |
| T1M | 2.88 |
| T1V | 3.92 |
| T1A | 1.51 |
| T1I | 1.95 |
| T1G | 1.92 |
| T1H | 3.62 |
| T1W | 1.45 |
| R2M | 3 |
| R2V | 2.98 |
| R2N | 1.94 |

| Variant | protein stability index |
| --- | --- |
| R2E | 1.04 |
| R2S | 2.78 |
| R2I | 3.09 |
| R2P | 2.76 |
| R2A | 2.29 |
| R2F | 3.38 |
| R2Q | 1.59 |
| R2Y | 4.16 |
| R2C | 2.19 |
| R2T | 2.24 |
| R2H | 1.38 |
| K3L | 1.85 |
| K3A | 2.18 |
| K3P | 2.52 |
| K3W | 1.86 |
| K3T | 1.66 |
| K3G | 3.74 |
| K3S | 1.59 |
| K3N | 2.16 |
| K3M | 2.94 |
| K3I | 2.34 |
| K3V | 3.52 |
| K3C | 2.31 |
| K3E | 2.41 |
| K3F | 2.44 |
